Assay results from patent US12497462.
Residue numbers refer to the chain shown, from its start.

B1: CD26-03G scFv (scFv, part only; not given: VL-VH linker and detection tag, V domains shown, not shown: another chain or arm of the molecule; small tags and cut ends)
VL: DIQMTQSPSSLSASVGDRVTITCRASQDVSSSVAWYQQKPGKAPKLLISYPGWLYSGVPSRFSGSGSGTDFTLTISSLQPEDFATYYCQQFGDFPMTFGQGTKVEIK
VH: EVQLVESGGGLVQPGGSLRLSCAASGFTIGNYGIHWVRQAPGKGLEWVAWIGPYGGYTFYADSVKGRFTISADTSKNTAYLQMNSLRAEDTAVYYCARFNNLLWNGMDYWGQGTLVTVSS
B2: CD26-04E scFv (scFv, part only; not given: VL-VH linker and detection tag, V domains shown, not shown: another chain or arm of the molecule; small tags and cut ends)
VL: DIQMTQSPSSLSASVGDRVTITCRASQDVNDGVAWYQQKPGKAPKLLIYWASYLYSGVPSRFSGSGSGTDFTLTISSLQPEDFATYYCQQSWNFPLTFGQGTKVEIK
VH: EVQLVESGGGLVQPGGSLRLSCAASGFTINDGFIHWVRQAPGKGLEWVAGIWPFGGSTSYADSVKGRFTISADTSKNTAYLQMNSLRAEDTAVYYCARFDVVDWGVMDYWGQGTLVTVSS
B3: CD26-07H scFv (scFv, part only; not given: VL-VH linker and detection tag, V domains shown, not shown: another chain or arm of the molecule; small tags and cut ends)
VL: DIQMTQSPSSLSASVGDRVTITCKSNQNLLYSHGRTYLNWYQQKPGKAPKLLIFGTSHLYSGVPSRFSGSGSGTDFTLTISSLQPEDFATYYCYQGYHVPFTFGQGTKVEIK
VH: EVQLVESGGGLVQPGGSLRLSCKASGYTFARFGMYWVRQAPGKGLEWVAFIAPNHGYTFYADSVKGRFTISADTSKNTAYLQMNSLRAEDTAVYYCARGHWYHGYMDYWGQGTLVTVSS
B4: CD26-01G scFv (scFv, part only; not given: VL-VH linker and detection tag, V domains shown, not shown: another chain or arm of the molecule; small tags and cut ends)
VL: B1 VL with S30N, S31N, S49F, Y50S, G52T, W53G, F91Y, G92F, M96L
VH: B1 VH with Y54S, N100D, N101V, L102H, L103G, W104F, N105H
B5: CD26-01F scFv (scFv, part only; not given: VL-VH linker and detection tag, V domains shown, not shown: another chain or arm of the molecule; small tags and cut ends)
VL: DIQMTQSPSSLSASVGDRVTITCRASQDVWGYVAWYQQKPGKAPKLLIFSSRSLYSGVPSRFSGSGSGTDFTLTISSLQPEDFATYYCQQYFNWPITFGQGTKVEIK
VH: EVQLVESGGGLVQPGGSLRLSCAASGFTISDYSIHWVRQAPGKGLEWVASIWPYGGFTSYADSVKGRFTISADTSKNTAYLQMNSLRAEDTAVYYCARFHSSSGDMDYWGQGTLVTVSS
B6: CD26-04A scFv (scFv, part only; not given: VL-VH linker and detection tag, V domains shown, not shown: another chain or arm of the molecule; small tags and cut ends)
VL: B2 VL with N30S, D31G, W50G, A51T, Y53G, S91G, W92G, N93D, F94W, L96I
VH: B5 VH with T28A, S30N, D31N, H100F, S103Y
B7: CD26-01D scFv (scFv, part only; not given: VL-VH linker and detection tag, V domains shown, not shown: another chain or arm of the molecule; small tags and cut ends)
VL: DIQMTQSPSSLSASVGDRVTITCRASQDVNSNVAWYQQKPGKAPKLLIFGSGGLYSGVPSRFSGSGSGTDFTLTISSLQPEDFATYYCQQYSSYPLTFGQGTKVETK
VH: B5 VH with S30N, Y32S, S33Y, S50W, S59Y, H100L, S101G, G104S, D105I
B8: CD26-10B scFv (scFv, part only; not given: VL-VH linker and detection tag, V domains shown, not shown: another chain or arm of the molecule; small tags and cut ends)
VL: B5 VL with S50A, R52G, S53A
VH: B5 VH
B9: CD26-12D scFv (scFv, part only; not given: VL-VH linker and detection tag, V domains shown, not shown: another chain or arm of the molecule; small tags and cut ends)
VL: B7 VL with N30Y, N32W, F49Y, S51P, G53S, S92Y, S93N, T106I
VH: B5 VH with S30N, D31S, Y32S, S33Y, S50G, W52G, G55W, H100Y, S103Y, D105F
B10: CD26-03B scFv (scFv, part only; not given: VL-VH linker and detection tag, V domains shown, not shown: another chain or arm of the molecule; small tags and cut ends)
VL: B7 VL with N30Y, S31Y, N32F, F49S, G50W, S51P, G52T, S92F, L96I, T106I
VH: B5 VH with S30G, D31N, Y32S, S33Y, S50G, W52G, G55W, H100N, S101G, D105F

molecular target: ProL/A-HRP; experiment: ELISA screen GH2 (HHJ), table P1-PrLA, format PrI/scFv/PrA-HRP

Row | ELISA OD450 | Binder
1 | 3.16 | B1
2 | 3.08 | B2

molecular target: IgG Control; experiment: ELISA screen, Plate2, panel IgG

Row | ELISA OD450 | Binder
3 | 0.047 | B3
4 | 0.047 | B4
5 | 0.045 | B5

molecular target: Human CD26-Fc fusion protein (human); experiment: ELISA screen of scFv clones, plate panel 'CD26' (CD26-Fc fusion protein per paragraph 510)
Sequence (chain, as listed by the source): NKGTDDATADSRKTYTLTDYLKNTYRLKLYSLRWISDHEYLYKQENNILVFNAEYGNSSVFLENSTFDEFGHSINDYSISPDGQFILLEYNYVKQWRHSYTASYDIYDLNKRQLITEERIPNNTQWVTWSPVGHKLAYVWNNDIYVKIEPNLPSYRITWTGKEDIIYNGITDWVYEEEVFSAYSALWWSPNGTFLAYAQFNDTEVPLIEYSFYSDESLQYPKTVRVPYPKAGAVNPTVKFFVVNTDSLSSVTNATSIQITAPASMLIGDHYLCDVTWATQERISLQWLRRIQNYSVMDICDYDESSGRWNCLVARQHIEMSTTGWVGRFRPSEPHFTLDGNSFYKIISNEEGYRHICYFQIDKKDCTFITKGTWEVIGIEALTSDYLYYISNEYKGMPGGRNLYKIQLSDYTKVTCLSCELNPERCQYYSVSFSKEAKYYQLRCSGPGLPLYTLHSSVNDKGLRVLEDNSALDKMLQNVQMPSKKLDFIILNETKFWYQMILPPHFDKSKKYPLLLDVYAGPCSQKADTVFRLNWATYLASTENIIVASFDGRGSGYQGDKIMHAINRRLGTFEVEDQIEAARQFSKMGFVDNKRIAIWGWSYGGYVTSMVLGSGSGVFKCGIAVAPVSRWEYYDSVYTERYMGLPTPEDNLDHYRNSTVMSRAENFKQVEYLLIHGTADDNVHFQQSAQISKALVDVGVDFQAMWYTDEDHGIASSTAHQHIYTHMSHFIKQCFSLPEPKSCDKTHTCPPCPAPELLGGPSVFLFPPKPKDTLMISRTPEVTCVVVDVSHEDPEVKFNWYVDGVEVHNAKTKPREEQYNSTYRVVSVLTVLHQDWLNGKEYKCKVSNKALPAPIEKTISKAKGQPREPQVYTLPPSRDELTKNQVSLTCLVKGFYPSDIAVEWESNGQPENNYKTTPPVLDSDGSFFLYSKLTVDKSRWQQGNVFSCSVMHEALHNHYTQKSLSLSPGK

Row | ELISA OD450 | Binder
6 | 2.92 | B6
7 | 0.948 | B7
8 | 0.68 | B8

molecular target: IgG Control; experiment: ELISA screen GH2 (HHJ), table P1-IgG, format IgG/scFv/Etag-HRP

Row | ELISA OD450 | Binder
9 | 0.05 | B1
10 | 0.05 | B2

molecular target: IgG Control; experiment: ELISA screen of scFv clones, plate panel 'IgG Control'

Row | ELISA OD450 | Binder
11 | 0.069 | B6
12 | 0.05 | B7
13 | 0.046 | B8
14 | 0.051 | B9
15 | 0.045 | B10

molecular target: Human CD26-Fc fusion protein (human); experiment: ELISA screen GH2 (HHJ), table P1-CD26, format CD26/scFv/Etag-HRP

Row | ELISA OD450 | Binder
16 | 3.08 | B1
17 | 3.06 | B2

molecular target: ProL/A-HRP; experiment: ELISA screen, Plate2, panel ProL/ProA-HRP

Row | ELISA OD450 | Binder
18 | 2.73 | B3
19 | 2.74 | B4
20 | 2.71 | B5

molecular target: Human CD26-Fc fusion protein (human); experiment: ELISA screen, Plate2, panel CD26

Row | ELISA OD450 | Binder
21 | 2.3 | B3
22 | 2.5 | B4
23 | 1.29 | B5

molecular target: ProL/A-HRP; experiment: ELISA screen of scFv clones, plate panel 'ProL/A-HRP' (scFv quality check)

Row | ELISA OD450 | Binder
24 | 3.11 | B6
25 | 3.13 | B7
26 | 3.03 | B8
27 | 3.05 | B9
28 | 3.14 | B10
